How the values were obtained:
[1] = molecular target: T1, recombinant PtCAD protein (Populus tremuloides, UniProt Q9M632); experiment: Kinetic properties of the recombinant PtCAD protein (HPLC-UV/MS); type: biochemical; settings: substrate of PtCAD; relative, coniferaldehyde = 100
Method: (§1) To characterize the enzyme pH optima, the substrate and recombinant PtCAD or PtSAD protein concentrations described above were used in sodium phosphate buffers, pH 5 to 8.5. […] For inhibition kinetics, the PtCAD-mediated reduction of sinapaldehyde (1 to 200 μM) was assayed in the presence of 1 to 5 μM coniferaldehyde, and the PtSAD-catalyzed reduction of coniferaldehyde (1 to 200 μM) was assayed in the presence of 1 to 5 μM sinapaldehyde. All reactions were terminated by the addition of 10 μL of 6 N HCI (to bring the pH to 2) and 500 ng of internal standard o-coumaric acid and analyzed by HPLC-UV/MS. An aliquot of 100 μL of reaction mixture was injected directly onto a Supelcosil LC-ABZ column (15 cm×4.6 mm×5 μm; Supelco, Bellefonte, Pa.) with automatic sample injection and separated isocratically with a Hewlett-Packard (HP) 1100 liquid chromatography system at 40° C. and a flow rate of 0.25 mL/min. […] The reaction products were identified and confirmed by comparing the ion fragmentation patterns of the product and the authentic standard in MS scanning mode at 70 V. The product quantity and Km, Vmax, kcat, and apparent inhibition constant (Ki) values (means±SE) were determined as described (Osakabe et al., 1999; Li et al., 2000). The results of the inhibition kinetics for both the CAD enzyme (i.e. Table 2) and the SAD enzyme (i.e., Table 3) using a variety of substrates are illustrated below.

[2] = molecular target: recombinant PtSAD protein (Populus tremuloides, UniProt Q94G59); experiment: Kinetic properties of the recombinant PtSAD protein (HPLC-UV/MS); type: biochemical; settings: substrate of PtSAD; relative, sinapaldehyde = 100
Method: as §1

[3] = test system: PtSAD recombinant protein; experiment: SAD enzyme activity assay, single and mixed substrates (HPLC-MS); type: biochemical, Populus tremuloides
Method: After 10 min at 30° C., the reaction was terminated and extracted with 0.5 ml ethyl acetate. The extraction was repeated 4 times and the combined ethyl acetate was evaporated and dissolved in the HPLC mobile phase for LC-MS identification and quantitation of the reaction products as we did before (Osakabe et al., 1999; Li et al. 2000). […] The SAD reactions with mixed substrates, sinapaldehyde and coniferyl aldehyde, were therefore conducted at the optimal pH 7.0 under above-described conditions. […] To characterize the enzyme pH optima, the substrate and recombinant PtCAD or PtSAD protein concentrations described above were used in sodium phosphate buffers, pH 5 to 8.5. All reactions were for 10 minutes at 30° C. An aliquot of 100 μL of reaction mixture was injected directly onto a Supelcosil LC-ABZ column (15 cm×4.6 mm×5 μm; Supelco, Bellefonte, Pa.) with automatic sample injection and separated isocratically with a Hewlett-Packard (HP) 1100 liquid chromatography system at 40° C. and a flow rate of 0.25 mL/min. […] The reaction products were identified and confirmed by comparing the ion fragmentation patterns of the product and the authentic standard in MS scanning mode at 70 V. The product quantity and Km, Vmax, kcat, and apparent inhibition constant (Ki) values (means±SE) were determined as described (Osakabe et al., 1999; Li et al., 2000). The results of the inhibition kinetics for both the CAD enzyme (i.e. Table 2) and the SAD enzyme (i.e., Table 3) using a variety of substrates are illustrated below.

[4] = molecular target: T1, recombinant PtCAD protein; experiment: PtCAD enzyme activity with a mixture of coniferaldehyde and sinapaldehyde (HPLC-MS); type: biochemical
Source text: A guaiacyl pathway gene encoding coniferyl alcohol dehydrogenase (CAD, FIG. 1) from Populus tremuloides (GenBank #AF217957) was first cloned. This cDNA was designated as PtCAD (GenBank #AF217957). E. coli-expressed recombinant PtCAD protein was characterized for its catalytic activity with coniferaldehyde and sinapaldehyde. Because monolignol biosynthetic pathway intermediates are present together in lignifying tissues (Osakabe et al., 1999; Li et al. 2000), the PtCAD enzyme activity with a mixture of coniferaldehyde and sinapaldehyde was assayed. As shown in FIG. 5 (a) and (c), the reaction mixture was separated by HPLC after the enzyme reaction. […]
An aliquot of 100 μL of reaction mixture was injected directly onto a Supelcosil LC-ABZ column (15 cm×4.6 mm×5 μm; Supelco, Bellefonte, Pa.) with automatic sample injection and separated isocratically with a Hewlett-Packard (HP) 1100 liquid chromatography system at 40° C. and a flow rate of 0.25 mL/min. […] The reaction products were identified and confirmed by comparing the ion fragmentation patterns of the product and the authentic standard in MS scanning mode at 70 V. The product quantity and Km, Vmax, kcat, and apparent inhibition constant (Ki) values (means±SE) were determined as described (Osakabe et al., 1999; Li et al., 2000). […]

[5] = substrate: COc1cc(/C=C/C=O)cc(O)c1O; experiment: Kinetic properties of the recombinant PtSAD protein (HPLC-UV/MS); type: biochemical, Populus tremuloides; settings: other: substrate of PtSAD, pH 7.0, 4 min, 30° C., NADPH, means of three independent assays
[6] = substrate: COc1cc(/C=C/C=O)cc(OC)c1O; experiment: as above; type: biochemical, Populus tremuloides; settings: other: substrate of PtSAD, pH 7.0, 4 min, 30° C., NADPH, means of three independent assays
[7] = substrate: COc1cc(/C=C/C=O)ccc1O; experiment: as above; type: biochemical, Populus tremuloides; settings: other: substrate of PtSAD, pH 7.0, 4 min, 30° C., NADPH, means of three independent assays
[8] = substrate: O=C/C=C/c1ccc(O)c(O)c1; experiment: as above; type: biochemical, Populus tremuloides; settings: other: substrate of PtSAD, pH 7.0, 4 min, 30° C., NADPH, means of three independent assays
[9] = substrate: O=C/C=C/c1ccc(O)cc1; experiment: as above; type: biochemical, Populus tremuloides; settings: other: substrate of PtSAD, pH 7.0, 4 min, 30° C., NADPH, means of three independent assays
[10] = substrate: COc1cc(/C=C/C=O)cc(O)c1O; experiment: Kinetic properties of the recombinant PtCAD protein (HPLC-UV/MS); type: biochemical, Populus tremuloides; settings: other: substrate of PtCAD, pH 8.0, 4 min, 30° C., NADPH, means of three independent assays
Method: as §1

[11] = substrate: COc1cc(/C=C/C=O)cc(OC)c1O; experiment: as above; type: biochemical, Populus tremuloides; settings: other: substrate of PtCAD, pH 8.0, 4 min, 30° C., NADPH, means of three independent assays
Method: as §1

[12] = substrate: COc1cc(/C=C/C=O)ccc1O; experiment: as above; type: biochemical, Populus tremuloides; settings: other: substrate of PtCAD, pH 8.0, 4 min, 30° C., NADPH, means of three independent assays
Method: as §1

[13] = substrate: O=C/C=C/c1ccc(O)c(O)c1; experiment: as above; type: biochemical, Populus tremuloides; settings: other: substrate of PtCAD, pH 8.0, 4 min, 30° C., NADPH, means of three independent assays
Method: as §1

[14] = substrate: O=C/C=C/c1ccc(O)cc1; experiment: as above; type: biochemical, Populus tremuloides; settings: other: substrate of PtCAD, pH 8.0, 4 min, 30° C., NADPH, means of three independent assays
Method: as §1

COc1cc(/C=C/C=O)cc(O)c1O [5-Hydroxyconiferaldehyde]
Vmax/Km [1]: 10.6% | Vmax/Km [2]: 15.5%

O=C/C=C/c1ccc(O)cc1 [p-Coumaraldehyde]
Vmax/Km [1]: 30.1% | Vmax/Km [2]: 27.4%

O=C/C=C/c1ccc(O)c(O)c1 [Caffealdehyde]
Vmax/Km [1]: 4.4% | Vmax/Km [2]: 2.2%

COc1cc(/C=C/C=O)cc(OC)c1O [Sinapaldehyde]
Vmax/Km [1]: 12.0% | Vmax/Km [2]: 100% | reaction of PtSAD with the substrate in a mixture ([3]; mixture of coniferaldehyde and sinapaldehyde, pH 7.0): sinapyl alcohol is the exclusive product | catalytic efficiency of PtSAD with sinapaldehyde versus coniferaldehyde ([3]; ratio of specific activities): 9 times | reaction of PtCAD with the substrate in a mixture [4]: no reaction

B1: recombinant PtSAD protein (Populus tremuloides) (protein)
chain: MSKSPEEEHPVKAFGWAARDQSGHLSPFNFSRRATGEEDVRFKVLYCGICHSDLHSIKNDWGFSMYPLVPGHEIVGEVTEVGSKVKKVNVGDKVGVGCLVGACHSCESCANDLENYCPKMILTYASIYHDGTITYGGYSDHMVANERYIIRFPDNMPLDGGAPLLCAGITVYSPLKYFGLDEPGKHIGIVGLGGLGHVAVKFAKAFGSKVTVISTSPSKKEEALKNFGADSFLVSRDQEQMQAAAGTLDGIIDTVSAVHPLLPLFGLLKSHGKLILVGAPEKPLELPAFSLIAGRKIVAGSGIGGMKETQEMIDFAAKHNITADIEVISTDYLNTAIERLAKNDVRYRFVIDVGNTLAATKP
Km [5]: 36.1 µM | Vmax [5]: 3.8 µmol/min/mg | kcat [5]: 2.53 s⁻¹ | Km [6]: 7.4 µM | Vmax [6]: 5 µmol/min/mg | kcat [6]: 3.33 s⁻¹ | Km [7]: 12.7 µM | Vmax [7]: 2.3 µmol/min/mg | kcat [7]: 1.53 s⁻¹ | Km [8]: 140.0 µM | Vmax [8]: 2 µmol/min/mg | kcat [8]: 1.33 s⁻¹ | Km [9]: 15.6 µM | Vmax [9]: 2.9 µmol/min/mg | kcat [9]: 1.93 s⁻¹

B2: recombinant PtCAD protein (Populus tremuloides) (protein)
chain: MGSLETERKIVGWAATDSTGHLAPYTYSLRDTGPEDVLIKVISCGICHTDIHQIKNDLGMSHYPMVPGHEVVGEVVEVGSDVTKFKAGDVVGVGVIVGSCKNCHPCKSELEQYCNKKIWSYNDVYTDGKPTQGGFAESMVVDQKFVVRIPDGMSPEQAAPLLCAGLTVYSPLKHFGLKQSGLRGGILGLGGVGHMGVKIAKAMGHHVTVISSSDKKREEAMEHLGADEYLVSSDVESMQKAADQLDYIIDTVPVVHPLEPYLSLLKLDGKLILMGVINTPLQFVSPMVMLGRKSITGSFIGSMKETEEMLEFCKEKGLASMIEVIKMDYINTAFERLEKNDVRYRFVVDVAGSKLIP
Km [10]: 17.5 µM | Vmax [10]: 0.17 µmol/min/mg | kcat [10]: 0.113 s⁻¹ | Km [11]: 9.1 µM | Vmax [11]: 0.1 µmol/min/mg | kcat [11]: 0.0667 s⁻¹ | Km [12]: 2.3 µM | Vmax [12]: 0.21 µmol/min/mg | kcat [12]: 0.14 s⁻¹ | Km [13]: 37.0 µM | Vmax [13]: 0.15 µmol/min/mg | kcat [13]: 0.1 s⁻¹ | Km [14]: 6.2 µM | Vmax [14]: 0.17 µmol/min/mg | kcat [14]: 0.113 s⁻¹
